Measurements reported in patent US20120027782A1 (Bristol-Myers Squibb, published 2012).

T1: human PTK7, full length, on the cell surface (human, UniProt Q13308 31-1070)
T1 sequence: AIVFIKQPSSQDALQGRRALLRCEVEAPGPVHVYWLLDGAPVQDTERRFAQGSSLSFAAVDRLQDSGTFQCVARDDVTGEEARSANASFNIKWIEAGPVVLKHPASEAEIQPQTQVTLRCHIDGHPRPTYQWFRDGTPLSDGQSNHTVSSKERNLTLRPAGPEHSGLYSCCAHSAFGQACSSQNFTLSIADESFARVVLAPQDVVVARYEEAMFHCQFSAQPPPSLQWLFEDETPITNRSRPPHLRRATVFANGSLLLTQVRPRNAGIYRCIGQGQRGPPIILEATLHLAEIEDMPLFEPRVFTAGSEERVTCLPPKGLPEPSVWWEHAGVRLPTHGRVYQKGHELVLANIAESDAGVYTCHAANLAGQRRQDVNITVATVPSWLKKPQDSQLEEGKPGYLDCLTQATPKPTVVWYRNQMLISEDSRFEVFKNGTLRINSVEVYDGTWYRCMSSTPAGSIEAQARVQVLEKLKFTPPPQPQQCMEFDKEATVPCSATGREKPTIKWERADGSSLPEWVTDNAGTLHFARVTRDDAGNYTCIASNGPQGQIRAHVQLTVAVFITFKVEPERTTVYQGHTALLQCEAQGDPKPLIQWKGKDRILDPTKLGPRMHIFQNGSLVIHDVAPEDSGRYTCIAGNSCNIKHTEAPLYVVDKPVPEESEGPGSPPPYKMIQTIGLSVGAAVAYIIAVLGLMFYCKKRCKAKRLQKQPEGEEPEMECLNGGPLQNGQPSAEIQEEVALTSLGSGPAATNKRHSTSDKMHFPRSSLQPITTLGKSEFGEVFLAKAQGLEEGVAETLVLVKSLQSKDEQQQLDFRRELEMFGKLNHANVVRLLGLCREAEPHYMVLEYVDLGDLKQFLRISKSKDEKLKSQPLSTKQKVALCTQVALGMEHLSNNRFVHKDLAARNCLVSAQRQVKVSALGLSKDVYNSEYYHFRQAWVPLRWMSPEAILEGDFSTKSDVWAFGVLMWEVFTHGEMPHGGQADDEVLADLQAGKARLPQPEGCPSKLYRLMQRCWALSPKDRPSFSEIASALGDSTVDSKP

T2: recombinant extracellular domain of PTK7 (human, UniProt Q13308 31-704)
T2 construct: also called PTK7 extracellular domain
T2 sequence: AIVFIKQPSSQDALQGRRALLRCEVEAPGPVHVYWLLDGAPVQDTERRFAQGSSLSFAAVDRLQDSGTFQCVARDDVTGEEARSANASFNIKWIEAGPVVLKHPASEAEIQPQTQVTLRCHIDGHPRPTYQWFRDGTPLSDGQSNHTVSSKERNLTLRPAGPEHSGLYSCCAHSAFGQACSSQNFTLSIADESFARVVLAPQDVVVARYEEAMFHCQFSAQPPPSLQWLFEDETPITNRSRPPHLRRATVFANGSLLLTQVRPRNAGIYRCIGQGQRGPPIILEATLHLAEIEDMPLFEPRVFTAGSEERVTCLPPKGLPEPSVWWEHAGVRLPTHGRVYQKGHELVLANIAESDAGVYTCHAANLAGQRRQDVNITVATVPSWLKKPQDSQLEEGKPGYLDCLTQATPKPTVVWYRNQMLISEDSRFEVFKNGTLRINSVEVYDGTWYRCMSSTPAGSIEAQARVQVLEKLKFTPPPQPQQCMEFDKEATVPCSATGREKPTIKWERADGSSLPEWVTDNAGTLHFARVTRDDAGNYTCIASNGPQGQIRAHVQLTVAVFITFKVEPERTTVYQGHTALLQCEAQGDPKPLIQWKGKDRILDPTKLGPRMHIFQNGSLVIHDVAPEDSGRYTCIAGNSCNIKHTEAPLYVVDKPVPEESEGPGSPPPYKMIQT


What was measured:
[1] = target: T1, human PTK7, full length, on the cell …; assay: cell-based or functional assay
[2] = target: T1, human PTK7, full length, on the cell …; assay: flow cytometry (MFI) on cancer cell lines that express cell surface PTK7, antibody at 10 ug/ml
Protocol: Anti-PTK7 antibodies were tested for binding to a variety of cancer cell lines by flow cytometry.
Binding of the 3G8, 12C6a, 4D5 and 12C6 anti-PTK7 human monoclonal antibodies to a panel of cancer cell lines was assessed by incubating cancer cell lines with anti-PTK7 human monoclonal antibodies at a concentration of 10 μg/ml. The cancer cell lines that were tested were A-431 (ATCC Acc No. CRL-1555), Wilms tumor cells G-401 (ATCC Acc No. CRL-1441), Saos-2 (ATCC Acc No. HTB-85), SKOV-3 (ATCC Acc No. HTB-77), PC3 (ATCC Acc No. CRL-1435), DMS 114 (ATCC Acc No. CRL-2066), ACHN (ATCC Ace No. CRL-1611), LNCaP (ATCC Acc No. CRL-1740), DU 145 (ATCC Acc No. HTB-81), LoVo (ATCC Acc No. CCL-229) and MIA PaCa-2 (ATCC Acc No. CRL-1420). An isotype control antibody was used as a negative control. The cells were washed and binding was detected with a FITC-labeled anti-human IgG Ab. Flow cytometric analyses were performed using a FACScan flow cytometry (Becton Dickinson, San Jose, Calif.). The anti-PTK7 monoclonal antibodies 3G8, 12C6a, 4D5 and 12C6 bound to the cancer cell lines A-431, Wilms tumor cells G-401, Saos-2, SKOV-3, PC3, DMS 114, ACHN, LNCaP, DU 145, LoVo and MIA PaCa-2, as measured by the mean fluorescent intensity (MFI) of staining.

[3] = target: T2, recombinant extracellular domain of PTK7; assay: ELISA (legend of FIG. 15; members named in paragraph 547)
Protocol: The binding of anti-PTK7 antibodies was also assessed by standard ELISA to examine the specificity of binding for PTK7.
Recombinant extracellular domain of PTK7 was tested for binding against the anti-PTK7 human monoclonal antibodies 3G8, 4D5, 12C6 and 12C6a at different concentrations. Standard ELISA procedures were performed. The anti-PTK7 human monoclonal antibodies were added at a starting concentration of 10 μg/ml and serially diluted at a 1:2 dilution. Goat-anti-human IgG (kappa chain-specific) polyclonal antibody conjugated with horseradish peroxidase (HRP) was used as secondary antibody. Each of the anti-PTK7 human monoclonal antibodies 3G8, 4D5, 12C6 and 12C6a bound to PTK7.

[4] = target: T1, human PTK7, full length, on the cell …; assay: flow cytometry (MFI) on Wilms' tumor cell line G-401
Protocol: The nephroblastoma Wilms' tumor cell line G-401 (ATCC Acc No. CRL-1441) was tested for binding of the HuMAb anti-PTK7 human monoclonal antibodies 12C6 and 7C8 at different concentrations. Binding of the anti-PTK7 human monoclonal antibodies was assessed by incubating 1×10⁵ cells with antibody at a starting concentration of 30 μg/ml and serially diluting the antibody at a 1:10 dilution. The cells were washed and binding was detected with a PE-labeled anti-human IgG Ab. Flow cytometric analyses were performed using a FACScan flow cytometry (Becton Dickinson, San Jose, Calif.). The anti-PTK7 monoclonal antibodies 12C6 and 7C8 bound to the nephroblastoma Wilms' tumor cell line in a concentration dependent manner, as measured by the mean fluorescent intensity (MFI) of staining. The EC₅₀ values for the anti-PTK7 monoclonal antibodies 12C6 and 7C8 was 4.0 nM and 3.4 nM, respectively.

| EC50 of the decrease in 3H-thymidine incorporation, Hum-Zap internalization assay, Wilms' tumor cells G-401 [1] | binding result [2] | binding result [3] | EC50 of the decrease in 3H-thymidine incorporation, Hum-Zap internalization assay, A-431 cells [1] | EC50 of the decrease in 3H-thymidine incorporation, Hum-Zap internalization assay, PC3 tumor cells [1] | EC50 [4] | Binder |
| --- | --- | --- | --- | --- | --- | --- |
| 0.3 nM | – | – | – | – | – | anti-PTK7 human monoclonal antibody 4D5 (antibody, V domains shown) VH: QVQLVESGGGVVQPGRSLRLSCAASGFTFSSYAFHWVRQAPGKGLEWVAVISYDGSIKYYADSVKGRFTISRDNSKNTLYLQMNSLRAEDTAVYYCARTYYFDYWGQGTLVTVSS VL: EIVLTQSPDFQSVTPKEKVTITCRASQSIGSSLHWYQQKPDQSPKLLIKYASQSFSGVPSRFSGSGSGTDFTLTINSLEAEDAAAYYCHQSSSLPITFGQGTRLEIK |
| 0.6 nM | – | – | – | – | – | anti-PTK7 human monoclonal antibody 3G8 (antibody, V domains shown) VH: QVQLVESGGGVVQPGRSLRLSCAASGFIFSNYAMHWVRQAPGKGLEWVAVISYDGNNKYYADSVKGRFTISRDNSKNTLYLQMNSLRAEDTAVYYCAREVWSIDNWGQGTLVTVSS VL: DIQMTQSPSSLSASVGDRVTITCRASQGISSWLAWYQQKPEKAPKSLIYAASSLQSGVPSRFSGSGSGTDFTLTISSLQPEDFATYYCQQYNSYPRTFGQGTKVEIK |
| – | binds | binds | – | – | – | anti-PTK7 human monoclonal antibody 12C6a (antibody, V domains shown, Same heavy chain variable region as 12C6, different light chain; Human IgG kappa from a hybridoma) VH: EVQLVQSGGGLVHPGGSLRLSCAGSGFTFSTYLMYWVRQAPGKTLEWVSAIGSGGDTYYADSVKGRFTISRDNAKNSLYLQMNSLRAEDMAVYYCARGLGYWGQGTLVTVSS VL: DIQMTQSPSSLSASVGDRVTITCRASQGISSWLAWYQQKPEKAPKSLIYAASSLQSGVPSRFSGSGSGTDFTLTISSLQPEDFATYYCQQYNSYPYTFGQGTKLEIK |
| 0.2 nM | – | – | 0.2 nM | 0.3 nM | 3.4 nM | anti-PTK7 human monoclonal antibody 7C8 (antibody, V domains shown, Human IgG kappa from a hybridoma) VH: QVQLVESGGGVVQPGRSLRLSCAASGFTFSSYGMHWVRQAPGKGLEWVAVIWDDGSNKYYVDSVKGRFTISRDNSKNTLYLQMNSLRAEDTAVYYCARDDYYGSGSFNSYYGTDVWGQGTTVTVSS VL: EIVLTQSPATLSLSPGERATLSCRASQSVSIYLAWYQQKPGQAPRLLIYDASNRATGIPARFSGSGSGTDFTLTISSLEPEDFAVYYCQQRSNWPPFTFGPGTKVDIK |
| 0.2 nM | – | – | 0.2 nM | 0.3 nM | 4 nM | anti-PTK7 human monoclonal antibody 12C6 (antibody, V domains shown, Human IgG kappa from a hybridoma) VH: EVQLVQSGGGLVHPGGSLRLSCAGSGFTFSTYLMYWVRQAPGKTLEWVSAIGSGGDTYYADSVKGRFTISRDNAKNSLYLQMNSLRAEDMAVYYCARGLGYWGQGTLVTVSS VL: not shown |
